Measurements from patent US20200138870A1, “RECREATION OF PANCREATIC NICHE ALLOWS FOR NOVEL METHODS FOR HUMAN, MATURE BETA DERIVATION FROM PLURIPOTENT STEM CELLS” (Baylor College of Medicine, priority 2016, published 2020).

Tests used:
Assay type in all cases: cell-based, human
Smad = assay: Dual-pathway multicolor luciferase assay, Smad reporter; details: 500 ng/ml WNT5A, at 36 and 48h
Description: The dual-pathway luciferase reporter vector was generated using the GoldenBraid2.0 Assembly Platform (Sarrion-Perdigones et al., 2011; Sarrion-Perdigones et al., 2013). Briefly, transcriptional units comprising the promoter elements, the CDS of the corresponding luciferase and the bovine growth hormone terminator were first assembled, and then these were latter combined in successive rounds of assembly to build the multigenic vector used in this assay. For the multicolor luciferase assay, H1-derived EPs were first dissociated into 96-well plates using method previously described and incubated overnight to allow cell attachment. […] At the determined harvesting point, culture media was removed and wells were washed with PBS. […] 10 μL of LARII reagent was added with the built-in injectors and after 2 seconds, the total light and the BP filtered light emitted by the FLuc and RedF mixture were measured for 1 second. Finally, 15 μL of Stop & Glo® reagent were injected and after 4 seconds the emitted light by Renilla luciferase was measured. The activity corresponding to FLuc and RedF that were simultaneously measured after the LARII reagent was added were calculated according to the method proposed by Nakayima et al (Nakajima et al., 2005) that is adjusted to this particular assay and explained in FIG. 7D.

hESC-derived EPs [1] = assay: Transwell migration and chemotaxis assay; details: 100, 500 ng/ml WNT5A in bottom well
Experimental: Transwell assays were performed using FluoroBlock Insert, […] pore size (Corning). The bottom 24 wells and the insert of transwell were coated with Geltrex to retained cells. At the experiment day, 1.5×10^5 hESC-derived EPs were seeded in each well at the transwell insert in B27 media with 10 μM Y-27632 and the well bottoms were replenished with either B27 media as control, B27 media+100 or 500 ng/ml WNT5A, or conditional media from Wk9.1, 17.5h and 20.1. After one week, the cell attached to the bottom wells were stained with Dapi and were counted.

hESC-derived EPs [2] = assay: RNA-sequencing of EPs treated with WNT5A
Experimental: Total RNA was extracted as described elsewhere herein and RNA quality was assessed using 2100 Bioanalyzer (Agilent Genomics). Samples with RIN≥9 preceded to library preparation using TruSeq stranded mRNA Library Prep Kit LT (Illumina) according to the manufacturer's protocol. Library concentration was determined by qPCR (KAPA Library Quantification Kit) to pool equal amounts of libraries with different adaptor indexes. Sequencing was performed using NextSeq500 (Illumina).
After preliminary analyses, showing a significant Pearson Correlation Coeficient for gene expression, two biological replicates were concatenated and analysed as single samples. This step yielded four samples, two for each treatment (5 days and 12h), as well as untreated samples. All reads were considered single-end in the bioinformatic analyses.
For Venn diagram, TFactS analysis and Gene enrichment analysis (GSEA), sequencing reads were first aligned using TopHat and the gene differential expression were assembled and analyzed using Cufflinks. […] To predict which transcription factors are responsible to the gene changes in the sequencing result, TFactS analysis was performed by inputting up and down regulation gene lists. […] For GSEA (http://software.broadinstitute.org/gsea/index.jsp), all input files were generated through GenePattern and the analysis was performed based on the instruction from Broad institute GSEA user guide with the following parameter: phenotype labels as 5dUT versus 5dWNT5A, 1000 genes set of permutations, weighted enrichment statistic, gene sets between 15 to 500, with log 2 ratio of class as metric for ranking genes. […] Data GEO submission number: GSE 90785.

EPs = assay: Scratch assay (cell migration); details: 100 or 500 ng/ml WNT5A, 30h
Experimental: EPs were dissociated and seeded into 12 well-plate to reach 90% confluence before a scratch was made. 200 μl pipette tip was used to create a smooth scratch and followed by 3h of mitomycin C treatment. Cells were then washed thrice with PBS and B27 media with or without WNT5A was added. Pictures of the scratch wound were taken at 0, 6, 12, 18, 24 and 30h after scratch to observe cell migration. Pictures were analyzed by counting cells migrating into the gap using ImageJ.

3D-EPs = assay: WNT5A treatment in 3D SC-β cell differentiation protocol (Pagliuca et al., 2014); details: 4 days of treatment, compared to INS upregulation at 12-day in original protocol
Experimental: SC-β cells were generated using the protocol as previously described (Pagliuca et al., 2014). WNT5A were introduced into the differentiation from EP stage (EN in the original paper) together with T3, ALK5i in CMRL media for the first two days and then change into T3, ALK5i in CMRL media from the third day. Samples were collected at the 4th day and 12th day counting from EP stage and were fixed with 4% PFA and thrice washed with PBS for 10 min. For whole-mount staining, samples were first blocked with 5% donkey serum in PBST overnight and incubated with antibodies overnight as described above.

[3] = 5-day long treatment with WNT5A

Smad activity (in words) (Smad): decreases
B1: WNT5A: secreted growth factor from the human pancreatic niche (R&D), used at 100 or 500 ng/ml (protein)
chain: IIGAQPLCSQLAGLSQGQKKLCHLYQDHMQYIGEGAKTGIKECQYQFRHRRWNCSTVDNTSVFGRVMQIGSRETAFTYAVSAAGVVNAMSRACREGELSTCGCSRAARPKDLPRDWLWGGCGDNIDYGYRFAKEFVDARERERIHAKGSYESARILMNLHNNEAGRRTVYNLADVACKCHGVSGSCSLKTCWLQLADFRKVGDALKEKYDSAAAMRLNSRGKLVQVNSRFNSPTTQDLVYIDPSPDYCVRNESTGSLGTQGRLCNKTSEGMDGCELMCCGRGYDQFKTVQTERCHCKFHWCCYVKCKKCTEIVDQFVCK
chemoattractant activity on EP migration (in words) (hESC-derived EPs [1]): does not act as a chemoattractant
downregulation of GCG (hESC-derived EPs [2]; 5-day WNT5A treatment): 5 fold
downregulation of MAFB (hESC-derived EPs [2]; 5-day WNT5A treatment): 3 fold
downregulation of NGN3 (hESC-derived EPs [2]; 5-day WNT5A treatment): 2 fold
up-regulation of GCK (hESC-derived EPs [2]; 5-day WNT5A treatment): 9 fold
up-regulation of INS (hESC-derived EPs [2]; 5-day WNT5A treatment): 81 fold
up-regulation of NEUROD1 (hESC-derived EPs [2]; 5-day WNT5A treatment): 56 fold
up-regulation of PCSK2 (hESC-derived EPs [2]; 5-day WNT5A treatment): 7 fold
up-regulation of SYT4 (hESC-derived EPs [2]; 5-day WNT5A treatment): 16 fold
expression of BMP3, 4, and 6, GDF5 and 9 (in words) (hESC-derived EPs [2]; [3]): downregulated
expression of DCN and BMP antagonist BMPER (in words) (hESC-derived EPs [2]; [3]): upregulated
cell mobility in scratch assays (in words) (EPs): no increase in cell mobility
number of INS+ cells in independent 3D protocol (in words) (3D-EPs): increasing the number of INS+ cells
